Substrate in series [1]: Nc1ncnc2c1ncn2[C@@H]1O[C@H](COP(=O)(O)OP(=O)(O)O[C@H]2O[C@H](CO)[C@@H](O)[C@H](O)[C@H]2O)[C@@H](O)[C@H]1O
Nature of the series: ADPGlc kinetics of starch synthase SSI-1. It counts as biochemical, maize. The conditions noted are these: other: −citrate, 5 mg/ml amylopectin as primer, 37° C. The text has this:
(§1) FIG. 58. SSI-1, SSI-2, and SSI-3 construct design. Three forms of SSI were constructed in the pET expression (see Methods). pExs10a encodes SSI-1, the full length maize SSI (583 amino acids) which has the N-terminal sequence CVAELSREGP (SEQ ID NO:64). pExs8 encodes a truncated SSI, SSI-2, with amino acids # 8-52 deleted from the N-terminus of SSI-1 and which has the N-terminal sequence CVAELSR/DLG (SEQ ID NO:65). pExs1d encodes the most truncated form of SSI, SSI-3, with the first 93 amino acids deleted from SSI-1 and which has the N-terminal sequence SIVFVTGE (SEQ ID NO:66). A depiction of the waxygene, encoding GBSS, which has the N-terminal sequence ASAGMNW (SEQ ID NO:67), is also included for comparison. The amino acid motif KS/TGGL (SEQ ID NO:9), the putative binding site for ADGPGlc, in indicated by the triangles. The KS/TGGL (SEQ ID NO:9) motif is located 18 amino acids from the N-terminus in GBSS, while the motif is 106 amino acids from the N-terminus in maize SSI. Drawing not to scale.
(§2) 5 mL of supernatant were used to assay STS and SBE activities as previously described (Preiss) with minor modification. […] The unincorporated [^14C]-ADPGlc was separated with Dowex anion exchange column (200-400 mesh, Sigma Chemical Co.). […] SBE activity was determined by phosphorylase stimulation assay. One unit of activity is defined as 1 mmol Glc incorporated into the a-glucan per min at. […]

Substrate in series [2]: Nc1ncnc2c1ncn2[C@@H]1O[C@H](COP(=O)(O)OP(=O)(O)O[C@H]2O[C@H](CO)[C@@H](O)[C@H](O)[C@H]2O)[C@@H](O)[C@H]1O
The series is described as follows: ADPGlc kinetics of starch synthase SSIIb-2. The settings on record: 37° C. Type of series: biochemical, maize. From the text: FIG. 60. SSIIb-1 and SSIIb-2 construct diagram. Two forms of SSIIb were constructed in the pET expression system (see Methods). pExs9 encodes SSIIb-1 which has the N-terminal sequence GSVGAALRS (SEQ ID NO:70), the putative full-length maize SSIIb which has the N-terminal sequence AAAPAGEE (SEQ ID NO:2). […] A depiction of the waxy gene, encoding GBSS which has the N-terminal sequence ASAGMNVV (SEQ ID NO:67), is also included for comparison. The amino acid motif KTGGL (SEQ ID NO:10), the putative binding site for ADPGlc, is indicated by the triangles. The KTGGL (SEQ ID NO:10) motif is located 18 amino acids from the N-terminus in GBSS, while the motif is 158 amino acids from the N-terminus in maize SSIIb.
5 mL of supernatant were used to assay STS and SBE activities as previously described (Preiss) with minor modification. […] […] The unincorporated [^14C]-ADPGlc was separated with Dowex anion exchange column (200-400 mesh, Sigma Chemical Co.). […] SBE activity was determined by phosphorylase stimulation assay. One unit of activity is defined as 1 mmol Glc incorporated into the a-glucan per min at. 30° C.
For the recombinant SS purification, the cell pellet was resuspended in sonication buffer (50 mM Tris-acetate, pH 7.5, 10 mM EDTA, and 5 mMDTT; 7 ml buffer per gram of cell mass), and cells were lysed using a Fisher 550 Sonic Dismembrator with 5×1 min. bursts with 30 sec. intervals. The homogenate was centrifuged at 9600 g for 30 minutes. SSI in the supernatant was then precipitated by slowly adding neutralized saturated ammonium sulfate to 40% saturation. After stirring on ice for an additional 50 minutes, proteins were collected by centrifugation at 12500 g for 45 minutes. The protein pellet was then redissolved in buffer A (50 mM Tris, pH 5.5, 1 mM EDTA, and 5 mM DTT) containing 0.1 M KCl and dialyzed against the same buffer, with one change of buffer. After dialysis, the sample was centrifuged at 13000 g for 20 minutes to remove insoluble materials. The resulting supernatant was loaded onto […] pre-equilibrated with dialysis buffer, and the flow through was collected. The column was washed with 10 column volumes of buffer a containing 0.1 M KCl, and then with buffer A containing 0.5 M KCl and 0.5 M maltose, collecting fractions during both washes. The active fractions were pooled and dialyzed overnight against buffer A, with one change of buffer. The next day, the amylase column sample was filtered and applied to a mono Q 5/5 FPLC column (Pharmacia). After washing with buffer A, a 20 ml 0-0,4 M KCl gradient was employed. […]

Substrate in series [3]: Nc1ncnc2c1ncn2[C@@H]1O[C@H](COP(=O)(O)OP(=O)(O)O[C@H]2O[C@H](CO)[C@@H](O)[C@H](O)[C@H]2O)[C@@H](O)[C@H]1O
The series is described as follows: purified protein, by the assay type. The conditions noted are these: other: −citrate, 5 mg/ml amylopectin as primer, 37° C.

Substrate in series [4]: Nc1ncnc2c1ncn2[C@@H]1O[C@H](COP(=O)(O)OP(=O)(O)O[C@H]2O[C@H](CO)[C@@H](O)[C@H](O)[C@H]2O)[C@@H](O)[C@H]1O
Nature of the series: ADPGlc kinetics of starch synthase SSIIb-1. It counts as biochemical, maize. The settings on record: 37° C.

Substrate in series [5]: Nc1ncnc2c1ncn2[C@@H]1O[C@H](COP(=O)(O)OP(=O)(O)O[C@H]2O[C@H](CO)[C@@H](O)[C@H](O)[C@H]2O)[C@@H](O)[C@H]1O
Nature of the series: ADPGlc kinetics of starch synthase SSI-3. It counts as biochemical, maize. The conditions noted are these: other: −citrate, 5 mg/ml amylopectin as primer, 37° C.
Excerpt: as §1, §2

B1: maize starch synthase SSI-1 (STSI-1), full length SSI (583 amino acids), N-terminus CVAELSREGP (SEQ ID NO:64) (Zea mays) (protein)
chain: CVAELSREGPAPRPLPPALLAPPLVPGFLAPPAEPTGEPASTPPPVPDAGLGDLGLEPEGIAEGSIDNTVVVASEQDSEIVVGKEQARAKVTQSIVFVTGEASPYAKSGGLGDVCGSLPVALAARGHRVMVVMPRYLNGTSDKNYANAFYTEKHIRIPCFGGEHEVTFFHEYRDSVDWVFVDHPSYHRPGNLYGDKFGAFGDNQFRYTLLCYAACEAPLILELGGYIYGQNCMFVVNDWHASLVPVLLAAKYRPYGVYKDSRSILVIHNLAHQGVEPASTYPDLGLPPEWYGALEWVFPEWARRHALDKGEAVNFLKGAVVTADRIVTVSKGYSWEVTTAEGGQGLNELLSSRKSVLNGIVNGIDINDWNPATDKCIPCHYSVDDLSGKAKCKGALQKELGLPIRPDVPLIGFIGRLDYQKGIDLIQLIIPDLMREDVQFVMLGSGDPELEDWMRSTESIFKDKFRGWVGFSVPVSHRITAGCDILLMPSRFEPCGLNQLYAMQYGTVPVVHATGGLRDTVENFNPFGENGEQGTGWAFAPLTTENMFVDIANCNIYIQGTQVLLGRANEARHVKRLHVGPCR
Regarding B1, the Michaelis-Menten constant (Km) – broadly, the substrate concentration at which the rate is half of its maximum – in series [1] stood at 240 ± 20 µM.

B2: maize starch synthase SSIIb-2, N-terminally truncated SSIIb, first 144 amino acids deleted (492 amino acids), N-terminus MNVVVVASE (SEQ ID NO:71) (Zea mays) (protein)
chain: MNVVVVASECAPFCKTGGLGDVVGALPKALARRGHRVMVVIPRYGEYAEARDLGVRRRYKVAGQDSEVTYFHSYIDGVDFVFVEAPPFRHRHNNIYGGERLDILKRMILFCKAAVEVPWYAPCGGTVYGDGNLVFIANDWHTALLPVYLKAYYRDNGLMQYARSVLVIHNIAHQGRGPVDDFVNFDLPEHYIDHFKLYDNIGGDHSNVFAAGLKTADRVVTVSNGYMWELKTSEGGWGLHDIINQNDWKLQGIVNGIDMSEWNPAVDVHLHSDDYTNYTFETLDTGKRQCKAALQRQLGLQVRDDVPLIGFIGRLDHQKGVDIIADAIHWIAGQDVQLVMLGTGRADLEDMLRRFESEHSDKVRAWVGFSVPLAHRITAGADILLMPSRFEPCGLNQLYAMAYGTVPVVHAVGGLRDTVAPFDPFNDTGLGWTFDRAEANRMIDALSHCLTTYRNYKESWRACRARGMAEDLSWDHAAVLYEDVLVKAKYQW
Turning to B2, the Km in series [2] (other: with amylopectin) was 320 ± 30 µM; in series [2] (other: with glycogen), 320 ± 40 µM. Moreover, the Vmax in series [2] (other: with amylopectin) came out at 90.9 ± 4.2 μmol min^−1 mg^−1 protein; in series [2] (other: with glycogen), 130 ± 6 μmol min^−1 mg^−1 protein.

B3: maize starch synthase SSI-2 (STSI-2), N-terminally truncated SSI, amino acids 8-52 of SSI-1 deleted, N-terminus CVAELSR/DLG (SEQ ID NO:65) (Zea mays; DEL47-91) (protein)
chain: CVAELSRDLGLEPEGIAEGSIDNTVVVASEQDSEIVVGKEQARAKVTQSIVFVTGEASPYAKSGGLGDVCGSLPVALAARGHRVMVVMPRYLNGTSDKNYANAFYTEKHIRIPCFGGEHEVTFFHEYRDSVDWVFVDHPSYHRPGNLYGDKFGAFGDNQFRYTLLCYAACEAPLILELGGYIYGQNCMFVVNDWHASLVPVLLAAKYRPYGVYKDSRSILVIHNLAHQGVEPASTYPDLGLPPEWYGALEWVFPEWARRHALDKGEAVNFLKGAVVTADRIVTVSKGYSWEVTTAEGGQGLNELLSSRKSVLNGIVNGIDINDWNPATDKCIPCHYSVDDLSGKAKCKGALQKELGLPIRPDVPLIGFIGRLDYQKGIDLIQLIIPDLMREDVQFVMLGSGDPELEDWMRSTESIFKDKFRGWVGFSVPVSHRITAGCDILLMPSRFEPCGLNQLYAMQYGTVPVVHATGGLRDTVENFNPFGENGEQGTGWAFAPLTTENMFVDIANCNIYIQGTQVLLGRANEARHVKRLHVGPCR
As for B3, in series [3], the Km turned out to be 250 ± 40 µM.

B4: maize starch synthase SSIIb-1, putative full-length SSIIb (637 amino acids), N-terminus … (SEQ ID NO:70) (Zea mays) (protein)
chain: AAAPAGGESEEAAKSSSSSQAGAVQGSTAKAVDSASPPNPLTSAPKQSQSAAMQNGTSGGSSASTAAPVSGPKADHPSAPVTKREIDASAVKPEPAGDDARPVESIGIAEPVDAKADAAPATDAAASAPYDREDNEPGPLAGPNVMNVVVVASECAPFCKTGGLGDVVGALPKALARRGHRVMVVIPRYGEYAEARDLGVRRRYKVAGQDSEVTYFHSYIDGVDFVFVEAPPFRHRHNNIYGGERLDILKRMILFCKAAVEVPWYAPCGGTVYGDGNLVFIANDWHTALLPVYLKAYYRDNGLMQYARSVLVIHNIAHQGRGPVDDFVNFDLPEHYIDHFKLYDNIGGDHSNVFAAGLKTADRVVTVSNGYMWELKTSEGGWGLHDIINQNDWKLQGIVNGIDMSEWNPAVDVHLHSDDYTNYTFETLDTGKRQCKAALQRQLGLQVRDDVPLIGFIGRLDHQKGVDIIADAIHWIAGQDVQLVMLGTGRADLEDMLRRFESEHSDKVRAWVGFSVPLAHRITAGADILLMPSRFEPCGLNQLYAMAYGTVPVVHAVGGLRDTVAPFDPFNDTGLGWTFDRAEANRMIDALSHCLTTYRNYKESWRACRARGMAEDLSWDHAAVLYEDVLVKAKYQW
notes: N-terminus printed as both … and AAAPAGEE
Turning to B4, the Km in series [4] (other: with amylopectin) was 400 ± 20 µM; in series [4] (other: with glycogen), 710 ± 10 µM. The Vmax in series [4] (other: with amylopectin) was found to be 72.8 ± 2.8 μmol min^−1 mg^−1 protein; in series [4] (other: with glycogen) it was 76.8 ± 3.2 μmol min^−1 mg^−1 protein.

B5: maize starch synthase SSI-3 (STSI-3), N-terminally truncated SSI, first 93 amino acids of SSI-1 deleted, N-terminus SIVFVTGE (SEQ ID NO:66) (Zea mays) (protein)
chain: SIVFVTGEASPYAKSGGLGDVCGSLPVALAARGHRVMVVMPRYLNGTSDKNYANAFYTEKHIRIPCFGGEHEVTFFHEYRDSVDWVFVDHPSYHRPGNLYGDKFGAFGDNQFRYTLLCYAACEAPLILELGGYIYGQNCMFVVNDWHASLVPVLLAAKYRPYGVYKDSRSILVIHNLAHQGVEPASTYPDLGLPPEWYGALEWVFPEWARRHALDKGEAVNFLKGAVVTADRIVTVSKGYSWEVTTAEGGQGLNELLSSRKSVLNGIVNGIDINDWNPATDKCIPCHYSVDDLSGKAKCKGALQKELGLPIRPDVPLIGFIGRLDYQKGIDLIQLIIPDLMREDVQFVMLGSGDPELEDWMRSTESIFKDKFRGWVGFSVPVSHRITAGCDILLMPSRFEPCGLNQLYAMQYGTVPVVHATGGLRDTVENFNPFGENGEQGTGWAFAPLTTENMFVDIANCNIYIQGTQVLLGRANEARHVKRLHVGPCR
B5: the Km in series [5] is 620 ± 40 µM.

Source of the values: patent publication US7285703B2, “Plant like starches and the method of making them in hosts” (BASF Plant Science GmbH, priority 1998, dated 2007).
